Data published in paper doi:10.1101/2024.12.18.629124.

Experiments:
Test in all cases: SPR
[1] = molecular target: GST-Staufen FL (Drosophila melanogaster) (UniProt P25159)
[2] = molecular target: Tm1 FL (Drosophila melanogaster)
[3] = molecular target: Tm1 1-335 (Drosophila melanogaster)
[4] = molecular target: Staufen dsRBD3-4-L4 (aa 578-951) (Drosophila melanogaster) (UniProt P25159)

Row | Kd [1] [nM] | Kd [4] [nM] | Substance | also measured
1 | 13 | – | Khc-Tm1 complex (from UniProt P17210 1-975) | –
2 | – | – | Staufen dsRBD3-4-5-C-term (domain or fragment) | Kd [2]: 152 nM
3 | – | – | Staufen dsRBD3-4-L4 (aa 578-951) (from UniProt P25159 578-951) (domain or fragment) | Kd [3]: 224 nM
4 | – | 495 | Tm1 1-213 (domain or fragment) | –
5 | – | 1420 | Tm1 1-213 L93Y (domain or fragment) | –
6 | 386 | 262 | Tm1 1-335 (domain or fragment) | –
7 | 86.6 | – | Tm1 FL (natural protein) | –
